Measurements taken from PMC12663309, “NEK7 couples SDHB to orchestrate respiratory chain electron transport homeostasis that impedes liver fibrosis” (Nature Communications, 2025).

Molecular target: T1, human NEK7 recombinant protein (HY-P75935, MCE) (human, UniProt Q8TDX7 1-302, RED-NHS dye label (in the MST only))
T1 construct: NEK7, human, commercially sourced recombinant protein; the vendor's catalogue entry would tell them; source: bought: MCE (HY-P75935), recombinant, purity 94%
Experiment: SPR; Biacore T200; NEK7 or NEK7-mut immobilised by amine coupling; SDHB flowed at different concentrations; 1:1 Langmuir binding model
Conditions: both partners purified

T1 sequence (Q8TDX7 whole entry, one chain of several): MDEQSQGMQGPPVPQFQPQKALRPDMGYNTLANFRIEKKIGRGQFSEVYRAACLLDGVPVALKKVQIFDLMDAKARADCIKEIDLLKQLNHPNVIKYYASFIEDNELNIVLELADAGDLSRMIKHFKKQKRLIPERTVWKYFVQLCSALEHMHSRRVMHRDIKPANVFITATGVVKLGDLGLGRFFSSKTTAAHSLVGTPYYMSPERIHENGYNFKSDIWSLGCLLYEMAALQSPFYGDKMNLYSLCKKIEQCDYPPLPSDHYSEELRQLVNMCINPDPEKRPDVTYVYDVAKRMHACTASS

B1: human SDHB recombinant protein (Ag29868, Proteintech) (natural protein, UniProt P21912 29-280, looked up)
chain: AQTAAATAPRIKKFAIYRWDPDKAGDKPHMQTYEVDLNKCGPMVLDALIKIKNEVDSTLTFRRSCREGICGSCAMNINGGNTLACTRRIDTNLNKVSKIYPLPHMYVIKDLVPDLSNFYAQYKSIEPYLKKKDESQEGKQQYLQSIEEREKLDGLYECILCACCSTSCPSYWWNGDKYLGPAVLMQAYRWMIDSRDDFTEERLAKLQDPFSLYRCHTIMNCTRTCPKGLNPGKAIAEIKKMMATYKEKKASV
notes: SDHB, human, commercially sourced recombinant protein; the vendor's catalogue entry would tell them (such antigen proteins may be tagged fragments); source: bought: Proteintech (Ag29868), recombinant, purity 80%
Kd: 349 nM
